In paper PMC13322254 one finds stoichiometry N data, which are given here for three substances.

Test [1] concerns the target SB2F1 (Pseudomonas putida | Bradyrhizobium japonicum) (UniProt Q88JB0). Briefly: SAXS + other: DLS; in solution with ATP and MgCl2, in the dark and after blue light illumination; SAXS at 10 °C in 20 mM Hepes pH 7.5, 150 mM NaCl, 2% glycerol, 2 mM TCEP, 1.5 mM ATP, 3 mM MgCl2, 0.64 to 4.18 mg/ml; DLS at 20 °C, ~1 mg/ml.
Test [2] has the same target. In words: SEC; analytical SEC, in the dark only, Superdex 200 10/300 GL, 20 mM tris pH 8.0, 40 mM NaCl, 0.5 ml/min. On the technique in general: In gel filtration, larger molecules generally elute earlier.
The target of test [3] is SB2F1, SeMet-labeled (Pseudomonas putida | Bradyrhizobium japonicum) (UniProt Q88JB0). In words: crystal structure; dark-grown crystals, sitting-drop vapor diffusion, 19 °C, 10 to 12% PEG-8000, 0.2 M NaCl, 0.1 M sodium citrate pH 5.8 to 6.1, 1 mM ATP, 2 mM MgCl2; for SB2F1 also dark-grown crystals illuminated with blue light before data collection.
Test [4] addresses SB2F1-I66R, SeMet-labeled (Pseudomonas putida | Bradyrhizobium japonicum) (UniProt Q88JB0). Described as above.
The target is the same in test [5]. In words: crystal structure; crystals grown under continuous blue light (450 nm), 19 °C, 16 to 20% PEG-3350, 0.2 M LiSO4, 0.1 M bicine pH 9.0 to 9.3, 1 mM ATP, 2 mM MgCl2.

Broadly, the stoichiometry N is a count of units in the complex or per binding partner. For the substance “SB2F1 (from UniProt Q88JB0 1-120) (enzyme)”, the stoichiometry N in test [1] and in test [2] was 2 in each case. “SB2F1, SeMet-labeled (from UniProt Q88JB0 1-120) (enzyme)”: in test [3], the stoichiometry N is 2. Turning to “SB2F1-I66R, SeMet-labeled (from UniProt Q88JB0 1-120) (enzyme)”, the stoichiometry N in test [4] and in test [5] was 2 in each case.
